Values quoted from earlier work, collected in publication PMC10947324.

Tests used:
Conditions in all cases: monomeric, unstructured Abeta
His13 = His13 (UniProt position 684, SGYEVHHQKLV)
His14 = His14 (UniProt position 685, GYEVHHQKLVF)
His6 = His6 (UniProt position 677, DAEFRHDSGYE)

For “Amyloid-beta peptide (Abeta), monomeric (Homo sapiens (inferred; the article discusses the peptide of Alzheimer's disease patients))”, the pKa (His13) is given as 6.64, the pKa (His14) is given as 6.67 and the pKa (His6) is given as 6.67.
